Results reported in the PETadex activity labels (doi:10.1126/science.aad6359).

B1: unnamed (protein)
chain: MNFPRASRLMQAAVLGGLMAVSAAATAQTNPYARGPNPTAASLEASAGPFTVRSFTVSRPSGYGAGTVYYPTNAGGTVGAIAIVPGYTARQSSIKWWGPRLASHGFVVITIDTNSTLDQPSSRSSQQMAALRQVASLNGTSSSPIYGVKTARMVMGWSMGGGGSLISAANNPSLKAAAPQAPWDSSTNFSSVTVPTLIFACENDSIAPVNSSALPIYDSMSRNAKQFLEINGGSHSCANSGNSNQALIGKKGVAWMKRFMDNDTRYSTFACENPNSTRVSDFRTANCS
B2: unnamed (protein)
chain: MQTTVTTMLLASVALAACAGGGSTPLPLPQQQPPQQEPPPPPVPLASRAACEALKDGNGDMVWPNAATVVEVAAWRDAAPATASAAALPEHCEVSGAIAKRTGIDGYPYEIKFRLRMPAEWNGRFFMEGGSGTNGSLSAATGSIGGGQIASALSRNFATIATDGGHDNAVNDNPDALGTVAFGLDPQARLDMGYNSYDQVTQAGKAAVARFYGRAADKSYFIGCSEGGREGMMLSQRFPSHYDGIVAGAPGYQLPKAGISGAWTTQSLAPAAVGLDAQGVPLINKSFSDADLHLLSQAILGTCDALDGLADGIVDNYRACQAAFDPATAANPANGQALQCVGAKTADCLSPVQVTAIKRAMAGPVNSAGTPLYNRWAWDAGMSGLSGTTYNQGWRSWWLGSFNSSANNAQRVSGFSARSWLVDFATPPEPMPMTQVAARMMKFDFDIDPLKIWATSGQFTQSSMDWHGATSTDLAAFRDRGGKMILYHGMSDAAFSALDTADYYERLGAAMPGAAGFARLFLVPGMNHCSGGPGTDRFDMLTPLVAWVERGEAPDQISAWSGTPGYFGVAARTRPLCPYPQIARYKGSGDINTEANFACAAPP
B3: unnamed (protein)
chain: MAVMTPRRERSSLLSRALQVTAAAATALVTVSLAAPAHAANPYARGPNPTDALLEASSGPFSVSEENVSRLSASGFGGGIYYPRENNTYGAVAISPGYTGTEASIAWLGERIASHGFVVITIDTITTLDQPDSRAEQLNAALNHMINRASSTVRSRIDSSRLAVMGHSMGGGGTLRLASQRPDLKAAIPLTPWHLNKNWSSVTVPTLIIGADLDTIAPVATHAKPFYNSLPSSISKAYLELDGATHFAPNIPNKIIGKYSVAWLKRFVDNDTRYTQFLCPGPRDGLFGEVEYRSTCPF
B4: unnamed (protein)
chain: MDGVLWRVRTAALMAALLALAAWALWASPSVEAQSNPYQRGPNPTRSALTADGPFSVATYTVSRLSVSGFGGGVIYYPTGTSLTFGGIAMSPGYTADASSLAWLGRRLASHGFVVLVINTNSRFDYPDSRASQLSAALNYLRTSSPSAVRARLDNARLAVAGHSMGGGGTLRIAEQNPSLKAAVPLTPWHTDKTFNTSVPVLIVGAEADTVAPVSQHAIPFYQNLPSTTPKVYVELDNASHFAPNSNNAAISVYTISWMKLWVDNDTRYRQFLCNVNDPALSFDRTNNRHCQ

Each protein was assayed on BHET (assay: Proxy for plastic degradation [kcat] (s⁻¹)). Conditions: pH 7.

| Protein | Proxy for plastic degradation |
| --- | --- |
| B1 | 0.8 |
| B3 | 0.03 |
| B4 | 0.1 |

What follows are proteins tested on pNP-C2; pNP-C4; pNP-C6; pNP-C8 (assay: Proxy for plastic degradation [kcat] (s⁻¹)). Conditions: pH 7.

| Protein | Proxy for plastic degradation |
| --- | --- |
| B1 | 0.005 |

These proteins were tested on hcPET (assay: Proxy for plastic degradation [Released monomer concentration (HPLC/LC-MS) (MHET+TPA)]). Conditions: pH 9.

| Protein | Proxy for plastic degradation |
| --- | --- |
| B1 | 0.01 mM |
| B3 | 0.001 mM |
| B4 | 0.001 mM |

Each protein was assayed on PET (assay: Proxy for plastic degradation [Released monomer concentration (HPLC/LC-MS) (TPA+MHET+BHET)]). Conditions: 0 h.

| Protein | Proxy for plastic degradation |
| --- | --- |
| B1 | 0 mM |

Same assay, conditions: pH 7

| Protein | Proxy for plastic degradation |
| --- | --- |
| B1 | 0.32 mM |
| B3 | 0.003 mM |
| B4 | 0.05 mM |

Same assay, conditions: pH 9; 20 °C

| Protein | Proxy for plastic degradation |
| --- | --- |
| B1 | 0.001 mM |
| B3 | 0.0001 mM |
| B4 | 0.0005 mM |

Same assay, conditions: pH 9; 30 °C

| Protein | Proxy for plastic degradation |
| --- | --- |
| B1 | 0.01 mM |
| B3 | 0.0001 mM |
| B4 | 0.01 mM |

Same assay, conditions: pH 9; 35 °C

| Protein | Proxy for plastic degradation |
| --- | --- |
| B1 | 0.02 mM |
| B3 | 0.0001 mM |
| B4 | 0.01 mM |

Same assay, conditions: pH 9; 40 °C

| Protein | Proxy for plastic degradation |
| --- | --- |
| B1 | 0.03 mM |
| B3 | 0.001 mM |
| B4 | 0.15 mM |

Same assay, conditions: pH 9; 50 °C

| Protein | Proxy for plastic degradation |
| --- | --- |
| B1 | 0.005 mM |
| B3 | 0.009 mM |
| B4 | 1.2 mM |

Same assay, conditions: pH 9; 60 °C

| Protein | Proxy for plastic degradation |
| --- | --- |
| B1 | 0.0001 mM |
| B3 | 0.015 mM |
| B4 | 3.5 mM |

Same assay, conditions: pH 9; 70 °C

| Protein | Proxy for plastic degradation |
| --- | --- |
| B1 | 0.0001 mM |
| B3 | 0.01 mM |
| B4 | 2 mM |

Same assay, conditions: pH 9; 80 °C

| Protein | Proxy for plastic degradation |
| --- | --- |
| B1 | 0.0001 mM |
| B3 | 0.001 mM |

These proteins were tested on MHET (assay: not given). Conditions: pH 7; 30 °C; part of the chain shown.

| Protein | Km | kcat | kcat/Km |
| --- | --- | --- | --- |
| B2 | 7.3 µM | 31 s⁻¹ | 4.25e+06 M⁻¹ s⁻¹ |
